Assay results taken from the supplement of paper PMC10567573.

B1: TNXB (parent)
chain: FSEIRETSAKVNWMPPPSRADSFK

Variants of: B1
Experiment: protein stability index of a GFP-peptide fusion (GPS, HEK-293T) (PSI 1-6); higher = more stable
Settings: c terminus: a fixed tail appended
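Also: lentivirally expressed fusions sorted by FACS into six bins by GFP to DsRed ratio, PSI derived from sequencing read proportions per bin multiplied by bin number.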

Protein stability index of substitutions, site by site:
E3: N 3.2; V 2.44; G 2.34; H 2.62; T 3.52; M 2.55; F 2.38; I 2.03; Q 3.13; W 2.6; D 3.37; P 2.52; A 2.4; C 1.77; L 2.47; S 3.09; K 3.68; Y 2.21; R 3.13
A9: K 3; N 2.95; H 3.36; E 4.04; Q 3.72; S 3.75; F 2.2; G 3.04; C 2.38; M 3.32; Y 2.82; T 3.46; W 2.46; D 3.58; V 2.35; R 3.29; L 3.41; P 3.33; I 2.83
R5: E 4.23; C 2.83; D 3.97; A 3.96; I 3.4; G 3.22; N 3.79; T 3.87; V 3.52; L 3.51; W 2.02; F 2.86; S 4.02; H 3.79; Q 4.15; P 4.12; M 3.48; Y 3.04; K 3.74
K10: C 3; Y 2.72; M 3.72; T 3.96; W 1.66; A 3.92; E 3.76; I 3.06; H 3.32; S 3.76; N 2.94; Q 4.12; G 3.28; L 3.29; F 2.09; R 3.67; D 4.01; P 3.52
T7: A 3.23; Q 3.38; H 3.1; S 3.22; Y 2.25; R 3.3; N 3.37; P 3.64; K 3.97; L 2.69; G 3.14; C 3.24; M 2.97; V 2.97; F 1.78; E 3.88; D 3.86; I 2.9
E6: T 2.95; S 2.64; V 2.84; D 3.28; I 1.82; L 2.28; G 3.03; W 2; Q 2.02; P 3.21; Y 2.87; H 3.38; C 2.65; A 3.31; F 2.22; M 2.34; N 2.69; K 3; R 2.89
I4: D 3.99; R 3; Y 2.94; T 4.29; H 4.14; N 3.51; Q 3.89; A 3.76; V 3.56; P 4.16; G 4.34; M 3.92; W 1.9; L 3.42; E 4.3; C 3.49; F 2.9; K 3.72; S 4.01
S2: Y 3
V11: I 3.77; D 4.12; E 4; L 3.29; R 3.02; N 3.45; K 4.2; S 3.87; A 3.77; F 2.97; Q 3.65; M 3.17; H 3.5; C 3.15; P 4.03; G 3.38
S8: Y 2.95; T 3.63; N 3.73; A 3.5; R 2.74; W 2.1; L 2.79; C 3.95; G 3.15; Q 3.76; I 2.73; E 3.5; V 3.1; K 2.95; P 3.3; D 4.48; H 3.4; F 2.51; M 3.15
